Assay results as given in the supplement of paper PMC9112550, “Optimization of the antimicrobial peptide Bac7 by deep mutational scanning” (BMC Biology, 2022).

These sequences were tested on Escherichia coli TOP10 (assay: shrunken log2 fold change of peptide-encoding DNA abundance (4.5 h post-induction vs induction); higher = less antimicrobial activity (less host growth inhibition)). Conditions: time post-induction: 4.5 h; library: site-saturation at positions 5, 18, 19, 20.
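Also: peptides expressed intracellularly from a pBAD plasmid library in pooled LB shake-flask culture, induced with 0.3% L-arabinose, DNA abundance read by NGS, three biological replicates, DESeq2 with apeglm shrinkage.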

Sequence	shrunken log2 fold change
RRIRARPPRLPRPRPRPFGNPRP	-0.148
RRIRQRPPRLPRPRPRPHARPRP	-0.00608
RRIRNRPPRLPRPRPRPMVSPRP	-0.145
RRIRARPPRLPRPRPRPAFKPRP	0.126
RRIRFRPPRLPRPRPRPVMQPRP	-0.0242
RRIRCRPPRLPRPRPRPYYLPRP	-0.38
RRIRLRPPRLPRPRPRPNMAPRP	-0.511
RRIRNRPPRLPRPRPRPVYAPRP	-0.128
RRIRVRPPRLPRPRPRPHSGPRP	-0.022
RRIRKRPPRLPRPRPRPMEFPRP	-0.00102
RRIRQRPPRLPRPRPRPFKQPRP	-0.24
RRIRFRPPRLPRPRPRPLMSPRP	-0.0355
RRIRARPPRLPRPRPRPPVGPRP	1.18
RRIRLRPPRLPRPRPRPESDPRP	-0.0845
RRIRSRPPRLPRPRPRPEESPRP	-0.048
RRIRVRPPRLPRPRPRPWENPRP	-0.0208
RRIRARPPRLPRPRPRPGGHPRP	0.115
RRIRPRPPRLPRPRPRPGTEPRP	-0.0123
RRIRSRPPRLPRPRPRPNDKPRP	-0.553
RRIRVRPPRLPRPRPRPFEYPRP	-0.151
RRIRFRPPRLPRPRPRPKGYPRP	0.00663
RRIRRRPPRLPRPRPRPAHKPRP	0.386
RRIRRRPPRLPRPRPRPITAPRP	0.148

Sequence	shrunken log2 fold change
RRIRYRPPRLPRPRPRPSKTPRP	-0.0513
RRIRHRPPRLPRPRPRPDPWPRP	0.0282
RRIRGRPPRLPRPRPRPRNLPRP	-0.0805
RRIRDRPPRLPRPRPRPNMIPRP	-0.0358
RRIRIRPPRLPRPRPRPVSLPRP	-0.147
RRIRHRPPRLPRPRPRPAKQPRP	0.307
RRIRKRPPRLPRPRPRPMWSPRP	0.123
RRIRTRPPRLPRPRPRPRFYPRP	-0.367
RRIRERPPRLPRPRPRPSKFPRP	-0.199
RRIRMRPPRLPRPRPRPPPRPRP	2.36
RRIRSRPPRLPRPRPRPWQPPRP	0.155
RRIRYRPPRLPRPRPRPGAKPRP	0.379
RRIRLRPPRLPRPRPRPGLMPRP	-0.0199
RRIRPRPPRLPRPRPRPKKEPRP	0.0526
RRIRPRPPRLPRPRPRPPMPPRP	0.442
RRIRRRPPRLPRPRPRPILKPRP	0.333
RRIRGRPPRLPRPRPRPGGWPRP	1.58
RRIRERPPRLPRPRPRPDDKPRP	-0.433
RRIRIRPPRLPRPRPRPNVNPRP	-0.594
RRIRERPPRLPRPRPRPYEIPRP	0.0169
RRIRQRPPRLPRPRPRPKMSPRP	-0.101
RRIRTRPPRLPRPRPRPCQTPRP	-0.0283
RRIRKRPPRLPRPRPRPPKYPRP	-0.0749

Sequence	shrunken log2 fold change
RRIRSRPPRLPRPRPRPWEHPRP	0.089
RRIRCRPPRLPRPRPRPFYWPRP	0.0228
RRIRGRPPRLPRPRPRPEWNPRP	1.71
RRIRRRPPRLPRPRPRPQDNPRP	-0.668
RRIRRRPPRLPRPRPRPQHYPRP	-0.128
RRIRGRPPRLPRPRPRPSKFPRP	0.0363
RRIRVRPPRLPRPRPRPGMWPRP	0.149
RRIRIRPPRLPRPRPRPLNIPRP	-0.925
RRIRSRPPRLPRPRPRPLVNPRP	-0.138
RRIRHRPPRLPRPRPRPVYVPRP	-0.158
RRIRMRPPRLPRPRPRPFWDPRP	0.359
RRIRARPPRLPRPRPRPRRCPRP	0.519
RRIRQRPPRLPRPRPRPGWEPRP	-0.00991
RRIRGRPPRLPRPRPRPSLWPRP	0.611
RRIRIRPPRLPRPRPRPKFLPRP	-0.537
RRIRDRPPRLPRPRPRPEGDPRP	0.502
RRIRERPPRLPRPRPRPDPEPRP	-0.159
RRIRIRPPRLPRPRPRPICGPRP	-0.161
RRIRPRPPRLPRPRPRPCSWPRP	0.0726
RRIRTRPPRLPRPRPRPAACPRP	0.0816
RRIRGRPPRLPRPRPRPKTAPRP	0.808
RRIRFRPPRLPRPRPRPPQSPRP	0.334
RRIRQRPPRLPRPRPRPWALPRP	-0.0992

Sequence	shrunken log2 fold change
RRIRARPPRLPRPRPRPSWRPRP	0.263
RRIRVRPPRLPRPRPRPHEKPRP	0.0571
RRIRKRPPRLPRPRPRPPIDPRP	0.185
RRIRHRPPRLPRPRPRPEWHPRP	0.0223
RRIRCRPPRLPRPRPRPYEPPRP	-0.151
RRIRVRPPRLPRPRPRPQGRPRP	-0.0469
RRIRFRPPRLPRPRPRPSVQPRP	-0.241
RRIRNRPPRLPRPRPRPRMSPRP	-0.238
RRIRCRPPRLPRPRPRPSNMPRP	-0.604
RRIRPRPPRLPRPRPRPAFPPRP	0.409
RRIRFRPPRLPRPRPRPIDWPRP	-0.0094
RRIRTRPPRLPRPRPRPCTMPRP	-0.0721
RRIRSRPPRLPRPRPRPQNEPRP	-0.0107
RRIRWRPPRLPRPRPRPMPWPRP	0.0161
RRIRKRPPRLPRPRPRPEQGPRP	0.199
RRIRIRPPRLPRPRPRPERWPRP	1.8
RRIRDRPPRLPRPRPRPECCPRP	0.828
RRIRVRPPRLPRPRPRPGYEPRP	0.232
RRIRTRPPRLPRPRPRPVKGPRP	-0.0154
RRIRTRPPRLPRPRPRPQICPRP	0.13
RRIRTRPPRLPRPRPRPGQEPRP	-0.184
RRIRMRPPRLPRPRPRPQPNPRP	0.546
